Source: publication PMC9813921 (Cell reports, 2022)

What was measured:
[1] = biological target: mCherry-LacRepressor-NLS-PP1γ (UniProt P36873); assay: two-hybrid
[2] = biological target: His6-tagged PP1α_(7–330) Q20R (UniProt P62136); assay: SPR
GFP-RRP1B_(RAxA) (human) = GFP-RRP1B_(RAxA) (human) (UniProt Q14684); assay: co-IP
[3] = biological target: GFP-RRP1B_(S702D) (human) (UniProt Q14684); assay: co-IP
His6-tagged PP1α_(7–330) = His6-tagged PP1α_(7–330) (UniProt P62136 7-330); assay: ITC
His6-tagged PP1γ_(7–323) = His6-tagged PP1γ_(7–323) (UniProt P36873 7-323); assay: ITC
Sequence of His6-tagged PP1γ_(7–323) (P36873 7-323): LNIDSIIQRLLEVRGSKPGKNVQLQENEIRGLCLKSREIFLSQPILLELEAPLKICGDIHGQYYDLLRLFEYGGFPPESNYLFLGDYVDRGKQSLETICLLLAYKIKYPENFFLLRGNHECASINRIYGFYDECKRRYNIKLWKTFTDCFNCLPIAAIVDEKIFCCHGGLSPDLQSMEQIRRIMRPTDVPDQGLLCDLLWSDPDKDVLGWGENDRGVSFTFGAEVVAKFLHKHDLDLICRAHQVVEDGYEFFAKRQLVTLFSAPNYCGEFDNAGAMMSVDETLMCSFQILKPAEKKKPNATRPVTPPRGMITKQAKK

His6-tagged PP1γ_(7–308) = His6-tagged PP1γ_(7–308) (UniProt P36873 7-308); assay: ITC
Sequence of His6-tagged PP1γ_(7–308) (P36873 7-308): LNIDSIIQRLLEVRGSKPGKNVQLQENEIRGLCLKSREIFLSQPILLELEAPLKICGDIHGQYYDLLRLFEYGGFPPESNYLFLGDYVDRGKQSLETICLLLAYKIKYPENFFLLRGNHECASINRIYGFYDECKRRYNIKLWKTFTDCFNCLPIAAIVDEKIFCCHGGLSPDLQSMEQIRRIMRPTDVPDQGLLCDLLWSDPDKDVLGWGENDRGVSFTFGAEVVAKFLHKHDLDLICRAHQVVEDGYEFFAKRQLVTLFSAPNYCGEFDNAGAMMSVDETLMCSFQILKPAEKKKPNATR

[4] = biological target: His6-tagged PP1α_(7–330) Q20R (UniProt P62136 7-330, Q20R); assay: SPR
Sequence of His6-tagged PP1α_(7–330) Q20R (UniProt P62136 7-330, Q20R) (P62136 7-330 Q20R): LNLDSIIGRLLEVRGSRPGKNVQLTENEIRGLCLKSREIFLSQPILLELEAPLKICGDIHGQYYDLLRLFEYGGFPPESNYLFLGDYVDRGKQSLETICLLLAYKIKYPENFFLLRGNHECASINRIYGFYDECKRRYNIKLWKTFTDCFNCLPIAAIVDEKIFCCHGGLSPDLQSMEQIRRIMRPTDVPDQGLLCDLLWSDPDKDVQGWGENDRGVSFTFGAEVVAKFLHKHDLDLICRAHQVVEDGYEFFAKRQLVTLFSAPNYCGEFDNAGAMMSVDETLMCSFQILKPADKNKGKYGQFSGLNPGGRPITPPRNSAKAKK

Sequence of His6-tagged PP1α_(7–330) Q20R (UniProt P62136) (P62136 7-330 Q20R): as above
Sequence of mCherry-LacRepressor-NLS-PP1γ (P36873 whole entry): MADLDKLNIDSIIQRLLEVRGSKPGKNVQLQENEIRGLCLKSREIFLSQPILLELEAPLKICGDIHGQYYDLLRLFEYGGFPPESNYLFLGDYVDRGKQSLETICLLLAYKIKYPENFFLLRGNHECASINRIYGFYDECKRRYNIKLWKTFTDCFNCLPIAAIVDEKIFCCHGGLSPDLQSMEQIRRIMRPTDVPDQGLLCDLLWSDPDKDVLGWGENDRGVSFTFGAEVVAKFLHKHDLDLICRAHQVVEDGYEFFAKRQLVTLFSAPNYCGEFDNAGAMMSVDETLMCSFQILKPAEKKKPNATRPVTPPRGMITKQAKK
Sequence of His6-tagged PP1α_(7–330) (P62136 7-330): as the sequence (P62136 7-330 Q20R) above, with R14Q counted along it

“GFP-RRP1B_(S702D) (from UniProt Q14684) (natural protein)” showed a percent of cells with accumulation at the gene locus [1] of 7%.

“RRP1B_(682–727) S702D (from UniProt Q14684) (domain or fragment)” gave a Kd [2] of 329 nM.

Molecule “PP1γ, endogenous (from UniProt P36873 1-323) (enzyme)” has a PP1γ co-precipitated, percent of WT GFP-RRP1B (GFP-RRP1B_(RAxA) (human)) of 2.1% and a PP1γ co-precipitated, percent of WT GFP-RRP1B [3] of 4.6%.

Molecule “RRP1B_(682–727) F715A (from UniProt Q14684) (domain or fragment)” has a Kd [2] of 157 nM.

B1: RRP1B_(657–758) (domain or fragment)
chain: RRAKSSTATHPPGPAVQLNKTPSSSKKVTFGLNRNMTAEFKKTDKSILVSPTGPSRVAFDPEQKPLHGVLKTPTSSPASSPLVAKKPLTTTPRRRPRAMDFF
B1 showed a Kd (His6-tagged PP1α_(7–330)) of 888 nM, a Kd (His6-tagged PP1γ_(7–323)) of 40 nM and a Kd (His6-tagged PP1γ_(7–308)) of 17.6 nM.

For KKVTFGLNRNMTAEFKKTDKSILVSPTGPSRVAFDPEQKPLH (domain or fragment) [RRP1B_(682–723)], the Kd [4] was 114 nM.

B2: RRP1B_(677–736) (domain or fragment)
chain: TPSSSKKVTFGLNRNMTAEFKKTDKSILVSPTGPSRVAFDPEQKPLHGVLKTPTSSPASS
B2 showed a Kd (His6-tagged PP1γ_(7–308)) of 22.6 nM.

With KKVTFGLNRNMTAEFKKTDKSILVSPTGPSRVAFDPEQKPLHGVLK (domain or fragment) [RRP1B_(682–727)] the Kd [4] was 22.5 nM.
